Experimental data reported in the RNAGym collection of RNA variant scans (doi:10.1093/molbev/msab373).

B1: Azoarcus group I ribozyme (parent)
chain: GUGCCUUGCGCCGGGAAACCACGCAAGGGAUGGUGUCAAAUUCGGCGAAACCUAAGCGCCCGCCCGGGCGUAUGGCAACGCCGAGCCAAGCUUCGGCGCCUGCGCCGAUGAAGGUGUAGAGACUAGACGGCACCCACCUAAGGCAAACGCUAUGGUGAAGGCAUAGUCCAGGGAGUGGCGAAAGUCACACAAACCGG

Variants of: B1
Experiment: reverse-splicing fitness (ratio to wild type); higher = more active; in vitro selection; Mg2+ level not given
Method in brief: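 An in vitro group I ribozyme library with randomized positions was T7-transcribed and gel-purified. In triplicate, 10 pmol RNA in EPPS pH 7.5 was reacted with 50 pmoles of a 30-nt RNA substrate for 1 h at 37 °C across several added MgCl2 levels (1–48 mM), then stopped with EDTA. Products were reverse transcribed from a substrate-complementary primer, PCR-amplified and sequenced (HiSeq 4000). Fitness is a variant's read proportion after selection over that before, normalised to wild type.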

Variant	reverse-splicing fitness
A111C A120U A145G C169A U176G	0.00216
A111C A120U A145G C169A U176C	0.00408
A111C A120U C169G	0.0632
A111C A120U C169U	0.0792
A111C A120U C169A	0.00479
A111C A120U C169G U176G	0.00154
A111C A120U C169G U176A	0.00529
A111C A120U C169G U176C	0.00999
A111C A120U A145G C150U C169U	0.065
A111C A120U A145G C150U C169A	0.00795
A111C A120U A145G C150U C169G	0.0471
A111C A145C C150G U176G	0.0182
A111C A145C C150G U176A	0.0871
A111C A145C C150G U176C	0.13
A111C A145G C150A	0.31
A111C A120U A145G C150G C169U U176G	0.00436
A111C A120U A145G C150G C169U U176C	0.00769
A111C A120U A145G C150G C169U U176A	0.00885
A111C A120U C150U C169U U176A	0.0122
A111C A120U C150U C169U U176C	0.0116
A111C A120U C150U C169U U176G	0.00319

Variant	reverse-splicing fitness
A111C A120U A145C C169A	0.00529
A111C A120U A145C C169G	0.0517
A111C A120U A145C C169U	0.0701
A111C A145C C150A C169U U176C	0.0102
A111C A145C C150A C169U U176A	0.0151
A111C A145C C150A C169U U176G	0.00658
A111C A120U A145G C150U C169A U176A	0.00648
A111C A120U A145G C150U C169A U176G	0.00278
A111C A120U A145G C150U C169A U176C	0.00404
A111C A120U A145C C150A C169G	0.0044
A111C A120U A145C C150A C169A	0.00208
A111C A120U A145C C150A C169U	0.00533
A111C A145C C169U	0.118
A111C A145C C169A	0.0285
A111C A145C C169G	0.0652
A111C A120U C150A C169U U176C	0.0062
A111C A120U C150A C169U U176A	0.00902
A111C A120U C150A C169U U176G	0.00274
A111C A120U A145G C150U C169G U176C	0.00994
A111C A120U A145G C150U C169G U176G	0.00262
A111C A120U A145G C150U C169G U176A	0.0074

Variant	reverse-splicing fitness
A111C A120U C150G C169A U176G	0.00363
A111C A120U C150G C169A U176A	0.00683
A111C A120U C150G C169A U176C	0.00504
A111C A120U A145U C150G C169A U176C	0.0035
A111C A120U A145U C150G C169A U176G	0.00296
A111C A120U A145U C150G C169A U176A	0.00343
A111C A120U A145G C150A U176A	0.046
A111C A120U A145G C150A U176G	0.0111
A111C A120U A145G C150A U176C	0.0554
A111C A120U A145U C150A C169U U176A	0.00386
A111C A120U A145U C150A C169U U176C	0.0049
A111C A120U A145U C150A C169U U176G	0.00271
A111C A120U A145C C150G C169U U176A	0.00402
A111C A120U A145C C150G C169U U176C	0.00313
A111C A120U A145C C150G C169U U176G	0.0023
A111C A145C U176C	0.372
A111C A145C U176G	0.217
A111C A145C U176A	0.402
A111C A120U A145G C150A C169U	0.0133
A111C A120U A145G C150A C169A	0.0061
A111C A120U A145G C150A C169G	0.0103

Variant	reverse-splicing fitness
A111C A120U A145G U176C	0.277
A111C A120U A145G U176G	0.0786
A111C A120U A145G U176A	0.221
A111C A145C C150A C169A U176G	0.00714
A111C A145C C150A C169A U176C	0.00898
A111C A145C C150A C169A U176A	0.0117
A111C A120U A145C C150G C169G U176A	0.00265
A111C A120U A145C C150G C169G U176G	0.00227
A111C A120U A145C C150G C169G U176C	0.0032
A111C A145G C150A C169G U176C	0.0293
A111C A145G C150A C169G U176G	0.00728
A111C A145G C150A C169G U176A	0.0153
A111C A120U A145G C150A C169G U176C	0.00682
A111C A120U A145G C150A C169G U176G	0.00255
A111C A120U A145G C150A C169G U176A	0.00653
A111C A120U A145U C150U C169U	0.0452
A111C A120U A145U C150U C169A	0.00426
A111C A120U A145U C150U C169G	0.0348
A111C A120U A145G C169G U176G	0.00174
A111C A120U A145G C169G U176C	0.0098
A111C A120U A145G C169G U176A	0.0064
